Results published in US20260285972 (published 2026).

B1: 22Mono5UQY (antibody, V domains shown)
VH: QVQLQESGPGLVKPSETLSLTCTASGYPFTNYWMHWVRQPPGKGLEWIGEINPSNGRTNYNEKFKSRATLSLDKSKNQASLNLDSVSAADTAIYYCARGFAYWGKGSTVTVSS
VL: AIQLTQSPSSLSASVGDRVTITCSASSSVSFMHWYQQKPGKAPKRWIYDTTKLASGVPSRFSGSGSGTDYTFTISSLQPEDIATYYCQQWNSHPLTFGPGTKVDIK
modifications: Flag-His tag, ACRO GPD-H52D3
B2: 22Mono3L7F (antibody, V domains shown)
VH: EVTLKESGPVLVKPTETLTLTCTASGYPFTNYWMHWVRQPPGKALEWIGEINPSNGRTNYNEKFKSRATLSLDKSKSQAVLTMTNMDPVDTATYYCARGFAYWGQGTLVTVSS
VL: EIVLTQSPATLSLSPGERATLSCSASSSVSFMHWYQQKPGQAPRRWIYDTTKLASGIPARFSGSGSGTDYTLTISSLEPEDFAVYYCQQWNSHPLTFGQGTKLEIK
modifications: Flag-His tag, ACRO GPD-H52D3
B3: 22Mono4DN4 (antibody, V domains shown)
VH: ELVQSGAEVKKPGSSVKVSCKASGYPFTNYWMHWVRQAPGQGLEWIGEINPSNGRTNYNEKFKSRATLTLDKSTSTAYMELSSLRSEDTAVYYCARGFAYWGQGTLVTVSS
VL: EIVLTQSPATLSLSPGERATLSCSASSSVSFMHWYQQKPGQAPRRWIYDTTKLASGVPARFSGSGSGTDYTLTISSLEPEDFAVYYCQQWNSHPLTFGQGTKVEIK
modifications: Flag-His tag, ACRO GPD-H52D3
B4: 22Mono5JO4 (antibody, V domains shown)
VH: QVQLVQSGAEVKKPGSSVKVSCRASGYPFTNYWMHWVRQAPGQGLEWIGEINPSNGRTNYNEKFKSRATLTLDKLTSTAYMELSSLTSEDTALYYCARGFAYWGQGTLVTVSS
VL: EIVLTQSPGTLSLSPGERATLSCSASSSVSFMHWYQQKPGQAPRRWIYDTTKLASGIPDRFSGSGSGTDYTLTISRLEPEDFAVYYCQQWNSHPLTFGQGTTVEIK
modifications: Flag-His tag, ACRO GPD-H52D3

Target: T1, recombinant human GPRC5D-Flag-His (human, UniProt Q9NZD1)
T1 chain: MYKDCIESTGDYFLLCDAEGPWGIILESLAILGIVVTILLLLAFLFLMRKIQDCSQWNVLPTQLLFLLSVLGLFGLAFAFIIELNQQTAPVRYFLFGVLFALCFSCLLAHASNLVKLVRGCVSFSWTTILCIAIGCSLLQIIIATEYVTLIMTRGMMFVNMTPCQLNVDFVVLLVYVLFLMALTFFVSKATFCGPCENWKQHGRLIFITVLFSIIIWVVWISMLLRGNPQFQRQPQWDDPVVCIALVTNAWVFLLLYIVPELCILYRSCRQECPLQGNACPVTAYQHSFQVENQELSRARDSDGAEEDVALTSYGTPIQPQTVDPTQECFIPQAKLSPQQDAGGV
Assay: BLI

In order of rising Kd:
1. B4  0.000787 µM
2. B1  0.00567 µM
3. B3  0.0169 µM
4. B2  0.0256 µM
